Assays:
SSTR2 [1] = system: T1, SSTR2; assay: in vivo; details: female, Wistar, rat, iv, total radioactivity
T1 construct: from tissue; host or cells: female Wistar rats in vivo (adrenals, pituitary, pancreas)
Procedure: Dynamic PET scans were performed on a small animal PET/MR scanner based on previously reported protocol. Briefly, female Wistar rats (208-231 g) were anaesthetized with a 5% isoflurane/ oxygen mixture before being maintained at 1-2% isoflurane/1 L/minute throughout the experiment. Rats tail veins were cannulated before being placed in the imaging cell (Bruker Biospin) which was then placed into the scanner; temperature and respiration were monitored throughout the scanning via a physiological monitoring system (SA Instruments, Stony Brook, NY, USA). Rats were injected with [^18F]AlF-3p-C-NETA-TATE (5.5-18.5 MBq, apparent molar activity 22 ± 8 GBq/μmol) at the start of the PET acquisition in presence or absence of octreotide acetate (2.5 mg/kg co-injection with radiopharmaceutical; blocking scans were performed the following day in the same animals). 75 min scans were carried out with the pituitary to kidneys in the PET FOV, during which respiration-gated 3D spin-echo MRI (TurboRARE sequence, TR = 500 mseconds (ms), TE = 18.8 ms, RARE factor = 8, FOV 14x6x6 cm, isotropic resolution of 0.5 mm) images were acquired with a quadrature radio-frequency resonator (transmit/receive, 86 mm internal diameter, Bruker Biospin). PET and MRI scans were then repeated at 100-120 minutes with the animal in the same position. Dynamic PET data were divided into timeframes (4×15 s, 1×240 s, 7×600 s) with corrections for decay, randoms, scatter and deadtime and then reconstructed using an MLEM algorithm with 24 iterations and an isotropic voxel size of 0.5 mm. PET images were normalized to injected activity and animal weight to give standardized uptake values (SUV), and selected organs were outlined to create volumes of interest after coregistration with MR images of which SUVmean values are reported; a circular VOI was placed over the splenic division of the pancreas (as visualised via tracer uptake and mapped to the blocked scan) to determine pancreatic uptake. All image analysis was carried out using the PFUSIT module of PMOD (v 4.004, PMOD Technologies Ltd., Zurich, Switzerland). Quantitative data are expressed as mean ± standard error of the mean (SEM).

SSTR2 [2] = target: T2, SSTR2 (Rattus norvegicus, UniProt P30680); design: method as in PMID 31997090; details: naïve rats, 2 h p.i.; cited from earlier work
T2 construct: from tissue; host or cells: female Wistar rats in vivo (adrenals, pituitary, pancreas)
T2 sequence (P30680 whole entry): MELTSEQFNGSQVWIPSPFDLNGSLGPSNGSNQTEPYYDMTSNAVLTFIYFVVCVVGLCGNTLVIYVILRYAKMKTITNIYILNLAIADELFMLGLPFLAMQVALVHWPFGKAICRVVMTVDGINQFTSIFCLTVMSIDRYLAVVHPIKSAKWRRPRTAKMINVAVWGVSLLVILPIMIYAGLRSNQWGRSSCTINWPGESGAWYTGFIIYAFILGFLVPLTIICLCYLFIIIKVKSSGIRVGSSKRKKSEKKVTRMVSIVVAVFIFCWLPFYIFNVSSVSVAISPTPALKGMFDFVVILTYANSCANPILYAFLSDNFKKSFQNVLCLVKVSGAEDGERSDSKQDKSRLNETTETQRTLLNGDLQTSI

Compound	SUV at 1.25 h (SSTR2 [1]; 2.5 mg/kg, SUV adrenals) [SUV]	SUV at 2 h (SSTR2 [1]; 2.5 mg/kg, SUV adrenals) [SUV]	SUV at 1.25 h (SSTR2 [1]; 2.5 mg/kg, SUV pancreas) [SUV]	SUV at 2 h (SSTR2 [1]; 2.5 mg/kg, SUV pancreas) [SUV]	SUV at 1.25 h (SSTR2 [1]; 2.5 mg/kg, SUV pituitary) [SUV]	SUV at 2 h (SSTR2 [1]; 2.5 mg/kg, SUV pituitary) [SUV]	SUV at 1.25 h (SSTR2 [1]; SUV adrenals) [SUV]	SUV at 2 h (SSTR2 [1]; SUV adrenals) [SUV]	SUV at 2 h (SSTR2 [1]; SUV blood and non-SSTR2 expressing organs) [SUV]	SUV at 2 h (SSTR2 [1]; SUV bone uptake in the spine) [SUV]	SUV at 1.25 h (SSTR2 [1]; SUV pancreas) [SUV]	SUV at 2 h (SSTR2 [1]; SUV pancreas) [SUV]	SUV at 1.25 h (SSTR2 [1]; SUV pituitary) [SUV]	SUV at 2 h (SSTR2 [1]; SUV pituitary) [SUV]	SUV bone uptake in the spine (SSTR2 [2])
C[C@@H](O)[C@H](NC(=O)[C@@H]1CSSC[C@H](NC(=O)[C@@H](Cc2ccccc2)NC(=O)CCC(=O)Nc2ccc(CCCC(CN3CCN(CC(=O)O)CCN(CC(=O)O)CC3)N(CC(=O)O)CC(=O)O)cc2)C(=O)N[C@@H](Cc2ccc(O)cc2)C(=O)N[C@H](Cc2c[nH]c3ccccc23)C(=O)N[C@@H](CCCCN)C(=O)N[C@@H]([C@@H](C)O)C(=O)N1)C(=O)O (stereo partly drawn) [[^18F]AlF-3p-C-NETA-TATE]	0.24 ± 0.03	0.18 ± 0.04	0.34 ± 0.2	0.31 ± 0.07	0.2 ± 0.04	0.21 ± 0.06	1.2 ± 0.59	1.22 ± 0.65	< 0.6	0.43 ± 0.25	7.78 ± 4.26	8.35 ± 5.07	0.93 ± 0.34	0.93 ± 0.36	
[^18F]AlF-NOTA-Octreotide															0.45 ± 0.03

From PMC9373814, “3p-C-NETA: A versatile and effective chelator for development of Al^18F-labeled and therapeutic radiopharmaceuticals” (Theranostics, 2022)
